Reference: article doi:10.1101/2021.02.24.432666

Biological target: yeast TRiC subunit CCT5 (yeast) (UniProt P40413)
Experiment: cryo-EM structure

stoichiometry N (subunits (single ring)): 8
Substance: yeast TRiC subunit CCT5 (from UniProt P40413 1-562) (natural protein)
